In article PMC2924587 (2010):

Target: Protein phosphatase 1 alpha 7-330 (Homo sapiens, UniProt P62136)
Test: ITC

Sequence of Protein phosphatase 1 alpha 7-330 (P62136 7-330): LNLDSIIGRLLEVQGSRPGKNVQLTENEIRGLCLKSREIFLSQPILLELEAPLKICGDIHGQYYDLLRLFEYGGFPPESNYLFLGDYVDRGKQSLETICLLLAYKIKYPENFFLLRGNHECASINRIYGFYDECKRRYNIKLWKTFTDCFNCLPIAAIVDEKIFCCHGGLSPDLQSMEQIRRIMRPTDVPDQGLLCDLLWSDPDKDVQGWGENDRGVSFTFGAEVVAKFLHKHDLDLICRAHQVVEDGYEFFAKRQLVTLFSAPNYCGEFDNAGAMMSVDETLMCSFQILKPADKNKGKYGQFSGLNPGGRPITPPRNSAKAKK

Kd: 8.7 nM
B1: Spinophilin 417-583 (protein)
chain: not shown
